In the supplement of paper PMC9112550, “Optimization of the antimicrobial peptide Bac7 by deep mutational scanning” (BMC Biology, 2022):

Test system: Escherichia coli TOP10
Assay: shrunken log2 fold change of peptide-encoding DNA abundance (4.5 h post-induction vs induction); higher = less antimicrobial activity (less host growth inhibition)
Settings: time post-induction: 4.5 h; library: site-saturation at positions 5, 18, 19, 20
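Note: peptides expressed intracellularly from a pBAD plasmid library in pooled LB shake-flask culture, induced with 0.3% L-arabinose, DNA abundance read by NGS, three biological replicates, DESeq2 with apeglm shrinkage.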

Sequence	shrunken log2 fold change
RRIRRRPPRLPRPRPRPRGHPRP	2.95
RRIRSRPPRLPRPRPRPLMVPRP	0.134
RRIRDRPPRLPRPRPRPQGDPRP	0.0878
RRIRIRPPRLPRPRPRPHTSPRP	-1.18
RRIRCRPPRLPRPRPRPAGNPRP	0.0404
RRIRMRPPRLPRPRPRPIQSPRP	0.00351
RRIRDRPPRLPRPRPRPWILPRP	-0.201
RRIRQRPPRLPRPRPRPDKVPRP	-0.0238
RRIRTRPPRLPRPRPRPSTCPRP	-0.175
RRIRFRPPRLPRPRPRPPMRPRP	1.05
RRIRQRPPRLPRPRPRPIPQPRP	-0.0321
RRIRKRPPRLPRPRPRPQRNPRP	0.0463
RRIRDRPPRLPRPRPRPYFHPRP	-0.678
RRIRKRPPRLPRPRPRPMFAPRP	0.485
RRIRWRPPRLPRPRPRPMWGPRP	0.117
RRIRERPPRLPRPRPRPFFEPRP	-0.0766
RRIRPRPPRLPRPRPRPQLLPRP	0.271
RRIRQRPPRLPRPRPRPSRIPRP	-0.305
RRIRPRPPRLPRPRPRPHKHPRP	-0.268
RRIRKRPPRLPRPRPRPNFYPRP	0.0337
RRIRQRPPRLPRPRPRPKKQPRP	-0.286
RRIRNRPPRLPRPRPRPLSIPRP	-0.423
RRIRNRPPRLPRPRPRPHQPPRP	0.0075
RRIRSRPPRLPRPRPRPVSEPRP	-0.125
RRIRCRPPRLPRPRPRPHVIPRP	-0.245

Sequence	shrunken log2 fold change
RRIRERPPRLPRPRPRPWWCPRP	-0.426
RRIRTRPPRLPRPRPRPNCLPRP	-0.0709
RRIRHRPPRLPRPRPRPGKDPRP	-0.0922
RRIRNRPPRLPRPRPRPPWGPRP	0.254
RRIRPRPPRLPRPRPRPEFGPRP	0.327
RRIRSRPPRLPRPRPRPGRDPRP	0.255
RRIRDRPPRLPRPRPRPAFVPRP	-0.114
RRIRHRPPRLPRPRPRPNDQPRP	-0.169
RRIRHRPPRLPRPRPRPKHMPRP	-0.0234
RRIRARPPRLPRPRPRPAMIPRP	0.0684
RRIRCRPPRLPRPRPRPLIHPRP	-0.842
RRIRRRPPRLPRPRPRPDCQPRP	-0.00305
RRIRRRPPRLPRPRPRPAGEPRP	0.75
RRIRCRPPRLPRPRPRPYLDPRP	-0.575
RRIRIRPPRLPRPRPRPLHHPRP	-0.148
RRIRMRPPRLPRPRPRPEWIPRP	-0.0024
RRIRSRPPRLPRPRPRPWSKPRP	-0.405
RRIRIRPPRLPRPRPRPDKWPRP	-0.318
RRIRLRPPRLPRPRPRPHRRPRP	0.0082
RRIRFRPPRLPRPRPRPRTDPRP	-0.0313
RRIRVRPPRLPRPRPRPGWSPRP	0.434
RRIRDRPPRLPRPRPRPWLHPRP	-0.00955
RRIRIRPPRLPRPRPRPCGKPRP	-0.025
RRIRMRPPRLPRPRPRPQKVPRP	0.238
RRIRMRPPRLPRPRPRPKKIPRP	0.599

Sequence	shrunken log2 fold change
RRIRERPPRLPRPRPRPAVNPRP	-0.00945
RRIRERPPRLPRPRPRPRHPPRP	-0.289
RRIRERPPRLPRPRPRPHGAPRP	0.0169
RRIRARPPRLPRPRPRPTMFPRP	0.121
RRIRMRPPRLPRPRPRPYQDPRP	0.0259
RRIRQRPPRLPRPRPRPDWIPRP	-0.035
RRIRLRPPRLPRPRPRPYCGPRP	-0.0687
RRIRLRPPRLPRPRPRPSRRPRP	-0.332
RRIRDRPPRLPRPRPRPRMIPRP	-0.237
RRIRARPPRLPRPRPRPEMGPRP	1.12
RRIRTRPPRLPRPRPRPVLPPRP	0.0511
RRIRCRPPRLPRPRPRPTAYPRP	-0.137
RRIRWRPPRLPRPRPRPVRTPRP	0.955
RRIRIRPPRLPRPRPRPAILPRP	0.089
RRIRKRPPRLPRPRPRPMYKPRP	-0.0655
RRIRARPPRLPRPRPRPKVDPRP	-0.0797
RRIRMRPPRLPRPRPRPMFHPRP	-0.244
RRIRIRPPRLPRPRPRPPMVPRP	-0.572
RRIRMRPPRLPRPRPRPISPPRP	0.0263
RRIRYRPPRLPRPRPRPNCHPRP	-0.507
RRIRPRPPRLPRPRPRPSNDPRP	-0.288
RRIRPRPPRLPRPRPRPTANPRP	0.297
RRIRARPPRLPRPRPRPGPTPRP	0.574
RRIRARPPRLPRPRPRPHGEPRP	-0.00651
RRIRCRPPRLPRPRPRPEWIPRP	-0.151

Sequence	shrunken log2 fold change
RRIRYRPPRLPRPRPRPVGDPRP	-0.0659
RRIRVRPPRLPRPRPRPSYDPRP	-0.576
RRIRFRPPRLPRPRPRPHMDPRP	-1.29
RRIRDRPPRLPRPRPRPHSNPRP	0.0359
RRIRGRPPRLPRPRPRPVFEPRP	1.16
RRIRHRPPRLPRPRPRPMVLPRP	-0.0459
RRIRERPPRLPRPRPRPAVWPRP	0.421
RRIRCRPPRLPRPRPRPCAIPRP	0.651
RRIRDRPPRLPRPRPRPYCWPRP	0.085
RRIRFRPPRLPRPRPRPQTCPRP	-0.31
RRIRERPPRLPRPRPRPNCYPRP	-0.342
RRIRPRPPRLPRPRPRPCHMPRP	-0.0442
RRIRHRPPRLPRPRPRPQPVPRP	0.259
RRIRMRPPRLPRPRPRPVSHPRP	0.259
RRIRCRPPRLPRPRPRPILTPRP	-0.302
RRIRDRPPRLPRPRPRPHIPPRP	2.08
RRIRARPPRLPRPRPRPFAQPRP	0.213
RRIRWRPPRLPRPRPRPCCAPRP	0.47
RRIRSRPPRLPRPRPRPQHHPRP	-0.466
RRIRTRPPRLPRPRPRPMNKPRP	-0.373
RRIRPRPPRLPRPRPRPWRGPRP	0.344
RRIRRRPPRLPRPRPRPVYPPRP	-0.284
RRIRLRPPRLPRPRPRPSDAPRP	0.0959
RRIRTRPPRLPRPRPRPQDWPRP	0.209
RRIRHRPPRLPRPRPRPPRYPRP	0.0399

Sequence	shrunken log2 fold change
RRIRDRPPRLPRPRPRPPCDPRP	-0.0123
RRIRYRPPRLPRPRPRPLMWPRP	-0.0343
RRIRERPPRLPRPRPRPAIPPRP	-0.737
RRIRVRPPRLPRPRPRPCHVPRP	-0.859
RRIRARPPRLPRPRPRPPCMPRP	0.099
RRIRERPPRLPRPRPRPMCAPRP	0.000297
RRIRFRPPRLPRPRPRPYHCPRP	0.0331
RRIRFRPPRLPRPRPRPNYYPRP	-0.613
RRIRYRPPRLPRPRPRPINEPRP	-0.181
RRIRVRPPRLPRPRPRPGIVPRP	0.106
RRIRVRPPRLPRPRPRPTHAPRP	0.285
RRIRKRPPRLPRPRPRPISEPRP	0.213
RRIRKRPPRLPRPRPRPKGHPRP	0.123
RRIRGRPPRLPRPRPRPTWEPRP	0.031
RRIRIRPPRLPRPRPRPWGTPRP	-0.859
RRIRCRPPRLPRPRPRPQGKPRP	-0.145
RRIRARPPRLPRPRPRPANRPRP	0.467
RRIRDRPPRLPRPRPRPKFVPRP	0.0202
RRIRTRPPRLPRPRPRPKWWPRP	0.683
RRIRGRPPRLPRPRPRPRWMPRP	0.297
RRIRMRPPRLPRPRPRPSRQPRP	0.956
RRIRVRPPRLPRPRPRPPSHPRP	-0.0316
RRIRCRPPRLPRPRPRPEQNPRP	0.268
RRIRWRPPRLPRPRPRPLFHPRP	-0.0933
RRIRLRPPRLPRPRPRPDCEPRP	0.0566

Sequence	shrunken log2 fold change
RRIRWRPPRLPRPRPRPWHFPRP	-0.265
RRIRGRPPRLPRPRPRPDDMPRP	0.00936
RRIRTRPPRLPRPRPRPPMEPRP	-0.00995
RRIRTRPPRLPRPRPRPCVEPRP	-0.0492
RRIRPRPPRLPRPRPRPMSNPRP	-0.127
RRIRSRPPRLPRPRPRPTWVPRP	0.0759
RRIRGRPPRLPRPRPRPLNEPRP	0.57
RRIRFRPPRLPRPRPRPHNWPRP	-0.122
RRIRKRPPRLPRPRPRPEDHPRP	0.247
RRIRFRPPRLPRPRPRPKRGPRP	0.0365
RRIRFRPPRLPRPRPRPNWNPRP	-0.42
RRIRKRPPRLPRPRPRPEQWPRP	-0.0362
RRIRERPPRLPRPRPRPKNFPRP	-0.311
RRIRLRPPRLPRPRPRPPYGPRP	0.0785
RRIRCRPPRLPRPRPRPTLLPRP	0.0984
RRIRDRPPRLPRPRPRPTFIPRP	-0.13
RRIRVRPPRLPRPRPRPSIKPRP	-0.552
RRIRFRPPRLPRPRPRPMTNPRP	-0.2
RRIRKRPPRLPRPRPRPTLDPRP	0.877
RRIRWRPPRLPRPRPRPTNSPRP	-0.39
RRIRCRPPRLPRPRPRPWAPPRP	-0.102
RRIRIRPPRLPRPRPRPISEPRP	-0.492
RRIRLRPPRLPRPRPRPSGWPRP	0.0673
RRIRMRPPRLPRPRPRPRWPPRP	1.06
RRIRHRPPRLPRPRPRPCSPPRP	-0.232
